In publication PMC6829862 one finds FRET efficiency, lower than that of m3 with m4 by data, which are given here for one substance.

This assay addresses mCherry–Gβ1γ9 dimer (UniProt P62873). Briefly: FRET or BRET; FLIM-FRET in living transiently transfected HEK 293 cells at 37 °C; donor Citrine in Gα, acceptor mCherry on Gβ1 with the appropriate Gγ; efficiency E = 1 − τda/τd from the short lifetime component τ1 (donor alone 2.7 ± 0.1 ns), analysed only at the plasma membrane; GppNHp added to the culture did not change the signal. (In general: BRET reads energy transfer from a luciferase to a nearby fluorophore.)

Chain of Citrine–Gαi3 (P08754 whole entry): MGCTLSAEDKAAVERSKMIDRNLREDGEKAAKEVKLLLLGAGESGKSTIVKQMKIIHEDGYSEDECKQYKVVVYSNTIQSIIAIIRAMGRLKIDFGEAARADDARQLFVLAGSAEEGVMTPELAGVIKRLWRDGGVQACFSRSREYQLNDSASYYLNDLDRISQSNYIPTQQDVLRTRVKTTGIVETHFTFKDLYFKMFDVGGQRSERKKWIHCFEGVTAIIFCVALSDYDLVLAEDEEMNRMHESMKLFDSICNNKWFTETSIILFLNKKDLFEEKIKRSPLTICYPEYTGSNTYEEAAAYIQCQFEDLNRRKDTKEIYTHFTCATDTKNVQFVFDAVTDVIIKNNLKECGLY

“Citrine–Gαi3 (from UniProt P08754 1-354) (natural protein)”: the FRET efficiency, lower than that of m3 with m4 by was found to be 5%.
